Measurements reported in patent publication US20220289857A1.
Where “and” joins values, the source holds several entries; their conditions need not be identical. Equal values may be shown once.

How the values were obtained:
[1] = target: human Fn14 (full length) on cells (human) (UniProt Q9NP84); assay: cell-based or functional assay
[2] = target: His-SUMO-huFn14 (soluble human Fn14 aa 28-75 with N-terminal 6xHis-SUMO tag) (human); assay: SPR Biacore T200; His-SUMO-huFn14 amine-coupled, Fab analyte; 1:1 fit
Chain of His-SUMO-huFn14 (soluble human Fn14 aa 28-75 with N-terminal 6xHis-SUMO tag) (human) (chain, as listed by the source limits assumed): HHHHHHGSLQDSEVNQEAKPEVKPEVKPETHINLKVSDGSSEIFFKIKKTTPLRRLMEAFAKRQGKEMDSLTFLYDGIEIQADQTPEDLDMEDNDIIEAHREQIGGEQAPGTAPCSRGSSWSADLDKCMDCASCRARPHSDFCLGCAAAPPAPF

[3] = target: cynomolgus macaque Fn14-GST (cynomolgus macaque (Macaca fascicularis)); assay: SPR Biacore T200; cyno Fn14-GST captured by anti-GST, Fab analyte; 1:1 fit
Chain of cynomolgus macaque Fn14-GST (cynomolgus macaque (Macaca fascicularis)) (chain, as listed by the source): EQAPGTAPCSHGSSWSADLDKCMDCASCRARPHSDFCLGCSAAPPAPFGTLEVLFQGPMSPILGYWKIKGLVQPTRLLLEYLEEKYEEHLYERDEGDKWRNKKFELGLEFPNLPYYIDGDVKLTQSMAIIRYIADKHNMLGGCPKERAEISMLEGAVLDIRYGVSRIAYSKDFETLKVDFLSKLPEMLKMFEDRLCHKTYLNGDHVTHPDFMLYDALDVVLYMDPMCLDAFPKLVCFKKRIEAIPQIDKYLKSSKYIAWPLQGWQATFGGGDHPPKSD

[4] = target: His-SUMO-huFn14 (soluble human Fn14 aa 28-75 with N-terminal 6xHis-SUMO tag) (human); assay: SPR Biacore T200; His-SUMO-huFn14 amine-coupled, Fab analyte; average of two runs
[5] = target: cynomolgus macaque Fn14-GST (cynomolgus macaque (Macaca fascicularis)); assay: SPR Biacore T200; cyno Fn14-GST captured by anti-GST, Fab analyte; average of two runs

Chain of human Fn14 (full length) on cells (human) (Q9NP84 28-129): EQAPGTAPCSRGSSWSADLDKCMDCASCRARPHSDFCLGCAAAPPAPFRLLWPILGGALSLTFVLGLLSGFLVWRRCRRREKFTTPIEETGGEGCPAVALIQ

mIgG1 isotype control antibody
ICAM-1 MFI on HRMC, 250 ng/mL rhTWEAK, mAb 0.1 µg/mL [1]: 33300 MFI

ITEM-4 Fab (enzymatic digest)
Kd [2]: 1.8 nM and 1.43 nM
koff [2]: 0.00304 s⁻¹ and 0.00279 s⁻¹
kon [2]: 1.68e+06 M⁻¹ s⁻¹ and 1.94e+06 M⁻¹ s⁻¹
Kd [3]: 1.39 nM and 1.21 nM
koff [3]: 0.00118 s⁻¹ and 0.00202 s⁻¹
kon [3]: 1.31e+06 M⁻¹ s⁻¹ and 1.68e+06 M⁻¹ s⁻¹
Kd [4]: 1.62 nM
Kd [5]: 1.3 nM

mIgG2b isotype control antibody
ICAM-1 MFI on HRMC, 250 ng/mL rhTWEAK, mAb 0.1 µg/mL [1]: 34700 MFI
